Publication PMC3144224, “Control of Gene Expression by the Retinoic Acid-Related Orphan Receptor Alpha in HepG2 Human Hepatoma Cells”

Target: T1, RORα1 (NR1F1) (human, UniProt P35398 1-523)
T1 sequence: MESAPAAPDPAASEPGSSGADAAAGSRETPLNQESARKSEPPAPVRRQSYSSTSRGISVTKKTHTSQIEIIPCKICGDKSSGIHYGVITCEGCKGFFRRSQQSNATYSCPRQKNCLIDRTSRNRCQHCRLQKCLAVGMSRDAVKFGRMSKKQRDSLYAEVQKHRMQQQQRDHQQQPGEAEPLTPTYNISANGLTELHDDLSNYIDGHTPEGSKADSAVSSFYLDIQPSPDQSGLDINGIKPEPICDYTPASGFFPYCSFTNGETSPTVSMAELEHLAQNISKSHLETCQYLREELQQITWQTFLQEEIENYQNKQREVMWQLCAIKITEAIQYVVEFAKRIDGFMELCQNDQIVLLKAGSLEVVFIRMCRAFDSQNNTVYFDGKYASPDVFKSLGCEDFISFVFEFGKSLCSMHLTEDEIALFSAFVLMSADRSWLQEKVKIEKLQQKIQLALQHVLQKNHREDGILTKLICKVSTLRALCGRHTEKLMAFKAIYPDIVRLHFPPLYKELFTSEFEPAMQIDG
Test: EMSA; 15 mM Tris-HCl pH 7.5, 50 mM KCl, 15 mM NaCl, 1 mM MgCl2, 0.03 mM EDTA, 1 mM DTT, 7% glycerol, 50 ng poly(dI-dC), 50 ng unspecific ss oligonucleotides, 0.15 ng
Settings: protein: ivt; label: 32P (Klenow fill-in, [α-32P]-dATP) when used as probe

B1: SPARC-RORE (dsDNA)
DNA 1: CGGTAGGCTGTTCTGGGTCATCCCTCCAGG
DNA 2: ACGTCCTGGAGGGATGACCCAGAACAGCCT
- binding result: binds
